Results from article PMC7277838.

Target: latency-associated peptide (LAP) of TGFβ1 (human (endogenous in human skin fibroblasts)) (UniProt P01137)

luciferase activity of mink lung TGFβ1 reporter cells given heat-treated (80 °C, 10 min) DOC-insoluble fractions of ML-II fibroblasts: 3 fold
Substance: mature TGFβ1 ligand (from UniProt P01137 279-390)
